Positions count from the first letter of the chain named.
T1: human SPNS2 (human, UniProt Q8IVW8 1-549)
T1 sequence: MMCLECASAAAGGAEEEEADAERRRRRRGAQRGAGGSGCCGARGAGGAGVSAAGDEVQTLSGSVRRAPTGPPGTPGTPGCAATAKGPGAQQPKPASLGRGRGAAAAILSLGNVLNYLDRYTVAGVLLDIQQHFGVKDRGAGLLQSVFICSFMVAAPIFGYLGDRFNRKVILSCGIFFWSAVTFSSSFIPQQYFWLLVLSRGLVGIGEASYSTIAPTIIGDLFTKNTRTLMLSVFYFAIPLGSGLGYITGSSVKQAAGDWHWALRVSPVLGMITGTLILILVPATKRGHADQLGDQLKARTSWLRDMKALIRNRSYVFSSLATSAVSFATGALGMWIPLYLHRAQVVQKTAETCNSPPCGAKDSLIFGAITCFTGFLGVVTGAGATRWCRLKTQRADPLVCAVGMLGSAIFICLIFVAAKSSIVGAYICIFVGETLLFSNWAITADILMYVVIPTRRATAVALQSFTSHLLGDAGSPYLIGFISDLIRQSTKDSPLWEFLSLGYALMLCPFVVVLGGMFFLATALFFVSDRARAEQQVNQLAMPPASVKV

T2: mouse SPNS2 (mouse, UniProt Q91VM4 1-549)
T2 sequence: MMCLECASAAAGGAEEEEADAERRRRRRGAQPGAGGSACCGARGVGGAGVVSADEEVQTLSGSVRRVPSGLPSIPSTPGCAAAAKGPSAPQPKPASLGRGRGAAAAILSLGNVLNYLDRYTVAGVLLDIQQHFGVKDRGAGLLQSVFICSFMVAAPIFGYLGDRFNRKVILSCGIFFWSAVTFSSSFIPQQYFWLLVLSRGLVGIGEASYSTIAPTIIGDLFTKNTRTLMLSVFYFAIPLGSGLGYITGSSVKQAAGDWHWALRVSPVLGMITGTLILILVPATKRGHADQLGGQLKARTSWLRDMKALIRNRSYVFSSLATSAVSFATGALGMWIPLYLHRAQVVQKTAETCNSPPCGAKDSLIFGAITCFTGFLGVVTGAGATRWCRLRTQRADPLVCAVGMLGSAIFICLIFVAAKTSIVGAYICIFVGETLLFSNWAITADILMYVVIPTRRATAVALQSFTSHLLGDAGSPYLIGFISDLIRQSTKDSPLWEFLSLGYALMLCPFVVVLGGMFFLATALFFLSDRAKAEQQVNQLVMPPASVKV

B1: 49-0703G (antibody, IgG2b, V domains shown)
VH: EVQLVESGGGLVQPGRSMKLSCAASGFTFSNHYMAWVRQAPTKGLEWVASISTGGGNTYYRDSVKGRFTISRDNAKSTLYLQMDSLRSEDTATYYCARQDYSNYMGGFAYWGQGTLVTVSS
VL: QFVLTQPNSVSTNLGSTVKLSCKRSTGNIGNNYVNWYQQYEGRSPTTMIYRDDERPDGVPDRFSGSIDRSSNSALLTINNVQTEDEADYFCQSFSNGMFIFAGGTQLTVL
B2: 33-0503E (antibody, IgG2b, V domains shown)
VH: EVQLVESGGGLVRPGGSMKLSCGASGFIFDNYYMTWVRQAPTKGLEWVASISSSGGNTYYRDSVRGRFTISRDNAGNTLSLQMGSLRAEDTATYHCAKEGYRGRYFDYWGQGVMVTVSS
VL: QVVLTQPNSVSTNLGSTVKLSCKRTTGNIGSNYVNWYQQHEGRSPTTMIYRDDERPDGVPDRFSGSIDRSSNSALLTINNVQTEDEAEYFCQSYSSGIIFGGGTKLTVL
B3: 93-1310F (antibody, IgG2b, V domains shown)
VH: EVQLVETGGGLVQPGSSLKLSCATSGFTFSDTWMSWVRQAPGKGLEWVALIKDKNSNYEANYAESVKGRFTISRDDSKRRVYLQMFTLRDQDTATYYCTSHEDFYYYSSYYFDYWGHGVMVTVSS
VL: DIVLTQSPATLSVTPGESVSLSCRASQGISTSIHWYQQKSNGSPRLLIKYASQSISGIPSRFSGSGSGTDFTLRINRVESEDFSVYYCQQTYSLPLTFGSGTRLEIKR
B4: 96-1403F (antibody, IgG2b, V domains shown)
VH: B3 VH with Q13R, Y58S, V66I, R79S, F86N, S100R, S109G, H117Q
VL: B3 VL with A9P, K39R, G42E, S56A, T72I, R74S, S100P, R103K, I106V
B5: 83-1110B (antibody, IgG2b, V domains shown)
VH: EVQLQQSGPEFVRPGTSVKFSCKVSGGSITSYFIHFVKQRPGQGLEWIGKIDPEDDSTKYGEKFKNKATLTADTSSNTAFLKLSSLTSEDTAIYFCTTLTGLDYWGQGVMVTVSS
VL: DIQMTQSPPVLSAAVGDRVTLSCKASRSLNKNLDWYQQKHGETPKLLIYHTHNLQTGIPSRFSGSGSDTDYTLTISSLQTEDVATYYCYQYHSGWTFGGGTRLELRR
B6: 94-1311E (antibody, V domains shown)
VH: EVQLQQSGAGLVRPRTSVRLSCKISGDSITAYYVHFVKQRPGQGLEWIGRIDPEDDSTKYSEKFKNKATLTADVSSSTAYLILSSLTSDDSATYFCSTLTGLDYWGQGVMVTVSS
VL: DIQMTQSPPVLSASVGDRVTLSCKASQSVHNKLDWYQQKHGEAPKLLIYYTHNLQTGIPSRFSGSGSGSDYTLTISSLRAEDVATYYCFQYYSGWTFGGGTKLEMKR

molecular target: T1, human SPNS2; test: cell-based or functional assay

Question: How did the “pIC50, S1P transport inhibition (S1PR3 Ca2+ FLIPR bioassay)” value turn out when B1 was run?
Answer: 7 pIC50 (M)

Question: B2 was tested. Which “pIC50, S1P transport inhibition (S1PR3 Ca2+ FLIPR bioassay)” value did it give?
Answer: 7 pIC50 (M)

Question: Which “pIC50, S1P transport inhibition (S1PR3 Ca2+ FLIPR bioassay)” value does the source give for B3 here?
Answer: 7.6 pIC50 (M)

Question: Which “pIC50, S1P transport inhibition (S1PR3 Ca2+ FLIPR bioassay)” value does the source give for B4 here?
Answer: 6.9 pIC50 (M)

Question: For B5, which “pIC50, S1P transport inhibition (S1PR3 Ca2+ FLIPR bioassay)” value is on record?
Answer: 7.6 pIC50 (M)

Question: With B6 as the binder, how does the “pIC50, S1P transport inhibition (S1PR3 Ca2+ FLIPR bioassay)” value read?
Answer: 7.8 pIC50 (M)

molecular target: T2, mouse SPNS2; test: cell-based or functional assay

Question: How did the “pIC50, S1P transport inhibition (S1PR3 Ca2+ FLIPR bioassay)” value turn out when B1 was run?
Answer: 7.3 pIC50 (M)

Question: With B2 as the binder, how does the “pIC50, S1P transport inhibition (S1PR3 Ca2+ FLIPR bioassay)” value read?
Answer: 7.5 pIC50 (M)

Question: With B3 as the binder, how does the “pIC50, S1P transport inhibition (S1PR3 Ca2+ FLIPR bioassay)” value read?
Answer: 7.9 pIC50 (M)

Question: How did the “pIC50, S1P transport inhibition (S1PR3 Ca2+ FLIPR bioassay)” value turn out when B4 was run?
Answer: 7.3 pIC50 (M)

Question: How did the “pIC50, S1P transport inhibition (S1PR3 Ca2+ FLIPR bioassay)” value turn out when B5 was run?
Answer: 8 pIC50 (M)

Question: For B6, which “pIC50, S1P transport inhibition (S1PR3 Ca2+ FLIPR bioassay)” value is on record?
Answer: 8.1 pIC50 (M)

molecular target: T1, human SPNS2; test: Cell ELISA
Experimental: (§1) Human and mouse SPNS2 and human SphK1 double stable expression Flp-in 293 cells were added to a poly D lysine coat 96-well plate (Corning, 356461) in a density of 1×10⁵ cells/well and was cultivated overnight, and then the culture medium was removed. An anti-SPNS2 antibody solution was adjusted into 20 μg/mL using 0.2% FBS/3% BSA/PBS, and 0.2% FBS/3% BSA/PBS (60 μL) was added to the antibody diluted solution (20 μL) to prepare seven-step diluted solutions by four fold serial dilution. Each diluted solution of the anti-SPNS2 antibody was added in a volume of 30 μL/well, and reacted for about one hour at room temperature. The antibody solution was removed, and the residue was washed with PBS containing 0.05% Tween 20 (PBS-T) two times, and fixed for about ten minutes at room temperature using 10% buffered formalin (Mildform (Trade mark) 10NM, Wako). After washing with PBS-T one time, a 5000-fold diluted solution of anti-rat IgG antibody HRP conjugate (Southern Biotech, 3030-05) in 0.2% FBS/3% BSA/PBS was added to each well (30 μL), and reacted for about one hour at room temperature. After washing with PBS-T four times, a substrate (TMB; 3, 3′, 5, 5′-tetramethylbenzidin) was added to each well (100 μL) to initiate the reaction. After 20 minutes, 2N sulfuric acid was added to each well (100 μL), and absorbance at 450 nm and 550 nm was measured. […] Each antibody bound to human SPNS2 and mouse SPNS2.

Question: B1 was tested. Which Emax did it give?
Answer: 1.77 absorbance

Question: What about the pEC50 of the same binder?
Answer: 8.42 pEC50 (M)

Question: With B2 as the binder, how does the Emax read?
Answer: 2.03 absorbance

Question: What about the pEC50 of the same binder?
Answer: 8.12 pEC50 (M)

Question: B3 was tested. Which Emax did it give?
Answer: 1.64 absorbance

Question: What about the pEC50 of the same binder?
Answer: 8.56 pEC50 (M)

Question: How did the Emax turn out when B4 was run?
Answer: 1.86 absorbance

Question: And the pEC50?
Answer: 7.76 pEC50 (M)

Question: Which Emax does the source give for B5 here?
Answer: 1.6 absorbance

Question: And the pEC50?
Answer: 8.32 pEC50 (M)

Question: What does the source list for B6?
Answer: Emax: 1.61 absorbance; pEC50: 8.34 pEC50 (M)

molecular target: T2, mouse SPNS2; test: Cell ELISA
Experimental: as §1

Question: For B1, which Emax is on record?
Answer: 1.67 absorbance

Question: What about the pEC50 of the same binder?
Answer: 8.09 pEC50 (M)

Question: B2 was tested. Which Emax did it give?
Answer: 2.2 absorbance

Question: And the pEC50?
Answer: 7.66 pEC50 (M)

Question: B3 was tested. Which Emax did it give?
Answer: 1.61 absorbance

Question: And the pEC50?
Answer: 8.29 pEC50 (M)

Question: For B4, which Emax is on record?
Answer: 1.78 absorbance

Question: What about the pEC50 of the same binder?
Answer: 7.42 pEC50 (M)

Question: Which Emax does the source give for B5 here?
Answer: 1.59 absorbance

Question: What about the pEC50 of the same binder?
Answer: 8.17 pEC50 (M)

Question: With B6 as the binder, how does the Emax read?
Answer: 1.52 absorbance

Question: What about the pEC50 of the same binder?
Answer: 8.2 pEC50 (M)

molecular target: T1, human SPNS2; test: cell-based or functional assay; remark: another data set of the same source

Question: B1 was tested. Which “pIC50, S1P transport inhibition (LC-MS/MS of S1P)” value did it give?
Answer: 7.4 pIC50 (M)

Question: Which “pIC50, S1P transport inhibition (LC-MS/MS of S1P)” value does the source give for B2 here?
Answer: 7.4 pIC50 (M)

Question: B3 was tested. Which “pIC50, S1P transport inhibition (LC-MS/MS of S1P)” value did it give?
Answer: 7.6 pIC50 (M)

Question: With B4 as the binder, how does the “pIC50, S1P transport inhibition (LC-MS/MS of S1P)” value read?
Answer: 7 pIC50 (M)

Question: With B5 as the binder, how does the “pIC50, S1P transport inhibition (LC-MS/MS of S1P)” value read?
Answer: 7.9 pIC50 (M)

Question: For B6, which “pIC50, S1P transport inhibition (LC-MS/MS of S1P)” value is on record?
Answer: 7.9 pIC50 (M)

molecular target: T2, mouse SPNS2; test: cell-based or functional assay; remark: another data set of the same source

Question: With B1 as the binder, how does the “pIC50, S1P transport inhibition (LC-MS/MS of S1P)” value read?
Answer: 7.6 pIC50 (M)

Question: Which “pIC50, S1P transport inhibition (LC-MS/MS of S1P)” value does the source give for B2 here?
Answer: 7.7 pIC50 (M)

Question: With B3 as the binder, how does the “pIC50, S1P transport inhibition (LC-MS/MS of S1P)” value read?
Answer: 8.2 pIC50 (M)

Question: With B4 as the binder, how does the “pIC50, S1P transport inhibition (LC-MS/MS of S1P)” value read?
Answer: 7.7 pIC50 (M)

Question: How did the “pIC50, S1P transport inhibition (LC-MS/MS of S1P)” value turn out when B5 was run?
Answer: 8.1 pIC50 (M)

Question: With B6 as the binder, how does the “pIC50, S1P transport inhibition (LC-MS/MS of S1P)” value read?
Answer: 8.2 pIC50 (M)

— patent US20210147523A1 (TEIJIN PHARMA, published 2021)
